Laboratory results from article PMC7327620.
“And” between values parts separate entries of the source, which are not always exact repeats. Identical values can stand only once.

Target: Tailless ΔHoc T4 phage capsids (bacteriophage T4) (UniProt P19896)
Assay: native gel or EMSA; Mal–Hoc mixed with ΔHoc T4 capsids at a series of molar ratios; 22°C for 2 h or overnight (16 h) in PBS with 10 mM MgCl2; 1% agarose, 100 V for 2 h, 1x Tris–Acetate–EDTA; GelCode blue protein stain

stoichiometry N (Mal–Hoc per capsid): 60 to 120 (2×) and 90
Substance: Maltase–SC–St–Hoc fusion (complex)
